First the molecules themselves.
B1: Low-density lipoprotein receptor-related protein 4 (Homo sapiens), O75096 (parent)
chain: MRRQWGALLLGALLCAHGLASSPECACGRSHFTCAVSALGECTCIPAQWQCDGDNDCGDHSDEDGCILPTCSPLDFHCDNGKCIRRSWVCDGDNDCEDDSDEQDCPPRECEEDEFPCQNGYCIRSLWHCDGDNDCGDNSDEQCDMRKCSDKEFRCSDGSCIAEHWYCDGDTDCKDGSDEENCPSAVPAPPCNLEEFQCAYGRCILDIYHCDGDDDCGDWSDESDCSSHQPCRSGEFMCDSGLCINAGWRCDGDADCDDQSDERNCTTSMCTAEQFRCHSGRCVRLSWRCDGEDDCADNSDEENCENTGSPQCALDQFLCWNGRCIGQRKLCNGVNDCGDNSDESPQQNCRPRTGEENCNVNNGGCAQKCQMVRGAVQCTCHTGYRLTEDGHTCQDVNECAEEGYCSQGCTNSEGAFQCWCETGYELRPDRRSCKALGPEPVLLFANRIDIRQVLPHRSEYTLLLNNLENAIALDFHHRRELVFWSDVTLDRILRANLNGSNVEEVVSTGLESPGGLAVDWVHDKLYWTDSGTSRIEVANLDGAHRKVLLWQNLEKPRAIALHPMEGTIYWTDWGNTPRIEASSMDGSGRRIIADTHLFWPNGLTIDYAGRRMYWVDAKHHVIERANLDGSHRKAVISQGLPHPFAITVFEDSLYWTDWHTKSINSANKFTGKNQEIIRNKLHFPMDIHTLHPQRQPAGKNRCGDNNGGCTHLCLPSGQNYTCACPTGFRKISSHACAQSLDKFLLFARRMDIRRISFDTEDLSDDVIPLADVRSAVALDWDSRDDHVYWTDVSTDTISRAKWDGTGQEVVVDTSLESPAGLAIDWVTNKLYWTDAGTDRIEVANTDGSMRTVLIWENLDRPRDIVVEPMGGYMYWTDWGASPKIERAGMDASGRQVIISSNLTWPNGLAIDYGSQRLYWADAGMKTIEFAGLDGSKRKVLIGSQLPHPFGLTLYGERIYWTDWQTKSIQSADRLTGLDRETLQENLENLMDIHVFHRRRPPVSTPCAMENGGCSHLCLRSPNPSGFSCTCPTGINLLSDGKTCSPGMNSFLIFARRIDIRMVSLDIPYFADVVVPINITMKNTIAIGVDPQEGKVYWSDSTLHRISRANLDGSQHEDIITTGLQTTDGLAVDAIGRKVYWTDTGTNRIEVGNLDGSMRKVLVWQNLDSPRAIVLYHEMGFMYWTDWGENAKLERSGMDGSDRAVLINNNLGWPNGLTVDKASSQLLWADAHTERIEAADLNGANRHTLVSPVQHPYGLTLLDSYIYWTDWQTRSIHRADKGTGSNVILVRSNLPGLMDMQAVDRAQPLGFNKCGSRNGGCSHLCLPRPSGFSCACPTGIQLKGDGKTCDPSPETYLLFSSRGSIRRISLDTSDHTDVHVPVPELNNVISLDYDSVDGKVYYTDVFLDVIRRADLNGSNMETVIGRGLKTTDGLAVDWVARNLYWTDTGRNTIEASRLDGSCRKVLINNSLDEPRAIAVFPRKGYLFWTDWGHIAKIERANLDGSERKVLINTDLGWPNGLTLDYDTRRIYWVDAHLDRIESADLNGKLRQVLVSHVSHPFALTQQDRWIYWTDWQTKSIQRVDKYSGRNKETVLANVEGLMDIIVVSPQRQTGTNACGVNNGGCTHLCFARASDFVCACPDEPDSRPCSLVPGLVPPAPRATGMSEKSPVLPNTPPTTLYSSTTRTRTSLEEVEGRCSERDARLGLCARSNDAVPAAPGEGLHISYAIGGLLSILLILVVIAALMLYRHKKSKFTDPGMGNLTYSNPSYRTSTQEVKIEAIPKPAMYNQLCYKKEGGPDHNYTKEKIKIVEGICLLSGDDAEWDDLKQLRSSRGGLLRDHVCMKTDTVSIQASSGSLDDTETEQLLQEEQSECSSVHTAATPERRGSLPDTGWKHERKLSSESQV

Variants of B1 are the subject of the test. To be noted: with sost_human SOST.
With W1186S, the “effect of a mutation on the interaction” value is “decreasing interaction”. In the case of R1170W it was “decreasing interaction”.

(Values after IntAct's records for PubMed 21471202.)
